From publication PMC10348774 come the findings set out here.

Series [1] in a line: flow cytometry of membrane ADAM10. Conditions: glycan lost; control: control SK-BR-3.
Series [2] is described as follows: IB of endogenous pre- and matADAM10. Particulars: glycan lost; control: untreated / vector SK-BR-3.
Series [3] is described as follows: IB of precursor and mature forms. Particulars: glycan lost; control: wild type (implied).
A short description of series [4]: IB after Eer I or MG132 rescue. Conditions: glycan lost; control: untreated SK-BR-3.
The nature of series [5]: IB and IF with ER marker Calnexin. Conditions: glycan lost; control: wild type (implied).

B1: ADAM metallopeptidase domain 10 (ADAM10): tunicamycin (protein)
parent chain: MVLLRVLILLLSWAAGMGGQYGNPLNKYIRHYEGLSYNVDSLHQKHQRAKRAVSHEDQFLRLDFHAHGRHFNLRMKRDTSLFSDEFKVETSNKVLDYDTSHIYTGHIYGEEGSFSHGSVIDGRFEGFIQTRGGTFYVEPAERYIKDRTLPFHSVIYHEDDINYPHKYGPQGGCADHSVFERMRKYQMTGVEEVTQIPQEEHAANGPELLRKKRTTSAEKNTCQLYIQTDHLFFKYYGTREAVIAQISSHVKAIDTIYQTTDFSGIRNISFMVKRIRINTTADEKDPTNPFRFPNIGVEKFLELNSEQNHDDYCLAYVFTDRDFDDGVLGLAWVGAPSGSSGGICEKSKLYSDGKKKSLNTGIITVQNYGSHVPPKVSHITFAHEVGHNFGSPHDSGTECTPGESKNLGQKENGNYIMYARATSGDKLNNNKFSLCSIRNISQVLEKKRNNCFVESGQPICGNGMVEQGEECDCGYSDQCKDECCFDANQPEGRKCKLKPGKQCSPSQGPCCTAQCAFKSKSEKCRDDSDCAREGICNGFTALCPASDPKPNFTDCNRHTQVCINGQCAGSICEKYGLEECTCASSDGKDDKELCHVCCMKKMDPSTCASTGSVQWSRHFSGRTITLQPGSPCNDFRGYCDVFMRCRLVDADGPLARLKKAIFSPELYENIAEWIVAHWWAVLLMGIALIMLMAGFIKICSVHTPSSNPKLPPPKPLPGTLKRRRPPQPIQQPQRQRPRESYQMGHMRR
Regarding B1, the localisation_or_trafficking entry in series [1] is listed as “decreases”. The expression_or_secretion entry in series [2] was “decreases”.

B2: ADAM metallopeptidase domain 10 (ADAM10): DPAGT1 silencing (protein)
parent chain: MVLLRVLILLLSWAAGMGGQYGNPLNKYIRHYEGLSYNVDSLHQKHQRAKRAVSHEDQFLRLDFHAHGRHFNLRMKRDTSLFSDEFKVETSNKVLDYDTSHIYTGHIYGEEGSFSHGSVIDGRFEGFIQTRGGTFYVEPAERYIKDRTLPFHSVIYHEDDINYPHKYGPQGGCADHSVFERMRKYQMTGVEEVTQIPQEEHAANGPELLRKKRTTSAEKNTCQLYIQTDHLFFKYYGTREAVIAQISSHVKAIDTIYQTTDFSGIRNISFMVKRIRINTTADEKDPTNPFRFPNIGVEKFLELNSEQNHDDYCLAYVFTDRDFDDGVLGLAWVGAPSGSSGGICEKSKLYSDGKKKSLNTGIITVQNYGSHVPPKVSHITFAHEVGHNFGSPHDSGTECTPGESKNLGQKENGNYIMYARATSGDKLNNNKFSLCSIRNISQVLEKKRNNCFVESGQPICGNGMVEQGEECDCGYSDQCKDECCFDANQPEGRKCKLKPGKQCSPSQGPCCTAQCAFKSKSEKCRDDSDCAREGICNGFTALCPASDPKPNFTDCNRHTQVCINGQCAGSICEKYGLEECTCASSDGKDDKELCHVCCMKKMDPSTCASTGSVQWSRHFSGRTITLQPGSPCNDFRGYCDVFMRCRLVDADGPLARLKKAIFSPELYENIAEWIVAHWWAVLLMGIALIMLMAGFIKICSVHTPSSNPKLPPPKPLPGTLKRRRPPQPIQQPQRQRPRESYQMGHMRR
As for B2, in series [1], the localisation_or_trafficking result is listed as “decreases”. For the same protein, the expression_or_secretion entry in series [2] was “decreases”.

B3: ADAM metallopeptidase domain 10 (ADAM10): N267Q (protein)
parent chain: MVLLRVLILLLSWAAGMGGQYGNPLNKYIRHYEGLSYNVDSLHQKHQRAKRAVSHEDQFLRLDFHAHGRHFNLRMKRDTSLFSDEFKVETSNKVLDYDTSHIYTGHIYGEEGSFSHGSVIDGRFEGFIQTRGGTFYVEPAERYIKDRTLPFHSVIYHEDDINYPHKYGPQGGCADHSVFERMRKYQMTGVEEVTQIPQEEHAANGPELLRKKRTTSAEKNTCQLYIQTDHLFFKYYGTREAVIAQISSHVKAIDTIYQTTDFSGIRNISFMVKRIRINTTADEKDPTNPFRFPNIGVEKFLELNSEQNHDDYCLAYVFTDRDFDDGVLGLAWVGAPSGSSGGICEKSKLYSDGKKKSLNTGIITVQNYGSHVPPKVSHITFAHEVGHNFGSPHDSGTECTPGESKNLGQKENGNYIMYARATSGDKLNNNKFSLCSIRNISQVLEKKRNNCFVESGQPICGNGMVEQGEECDCGYSDQCKDECCFDANQPEGRKCKLKPGKQCSPSQGPCCTAQCAFKSKSEKCRDDSDCAREGICNGFTALCPASDPKPNFTDCNRHTQVCINGQCAGSICEKYGLEECTCASSDGKDDKELCHVCCMKKMDPSTCASTGSVQWSRHFSGRTITLQPGSPCNDFRGYCDVFMRCRLVDADGPLARLKKAIFSPELYENIAEWIVAHWWAVLLMGIALIMLMAGFIKICSVHTPSSNPKLPPPKPLPGTLKRRRPPQPIQQPQRQRPRESYQMGHMRR
Consider B3, for which the “other: proteolytic processing” value in series [3] is listed as “no change”.

B4: ADAM metallopeptidase domain 10 (ADAM10): DPAGT1 inhibition/knockdown + Eer I or MG132 (protein)
parent chain: MVLLRVLILLLSWAAGMGGQYGNPLNKYIRHYEGLSYNVDSLHQKHQRAKRAVSHEDQFLRLDFHAHGRHFNLRMKRDTSLFSDEFKVETSNKVLDYDTSHIYTGHIYGEEGSFSHGSVIDGRFEGFIQTRGGTFYVEPAERYIKDRTLPFHSVIYHEDDINYPHKYGPQGGCADHSVFERMRKYQMTGVEEVTQIPQEEHAANGPELLRKKRTTSAEKNTCQLYIQTDHLFFKYYGTREAVIAQISSHVKAIDTIYQTTDFSGIRNISFMVKRIRINTTADEKDPTNPFRFPNIGVEKFLELNSEQNHDDYCLAYVFTDRDFDDGVLGLAWVGAPSGSSGGICEKSKLYSDGKKKSLNTGIITVQNYGSHVPPKVSHITFAHEVGHNFGSPHDSGTECTPGESKNLGQKENGNYIMYARATSGDKLNNNKFSLCSIRNISQVLEKKRNNCFVESGQPICGNGMVEQGEECDCGYSDQCKDECCFDANQPEGRKCKLKPGKQCSPSQGPCCTAQCAFKSKSEKCRDDSDCAREGICNGFTALCPASDPKPNFTDCNRHTQVCINGQCAGSICEKYGLEECTCASSDGKDDKELCHVCCMKKMDPSTCASTGSVQWSRHFSGRTITLQPGSPCNDFRGYCDVFMRCRLVDADGPLARLKKAIFSPELYENIAEWIVAHWWAVLLMGIALIMLMAGFIKICSVHTPSSNPKLPPPKPLPGTLKRRRPPQPIQQPQRQRPRESYQMGHMRR
Regarding B4, in series [4], the “other: proteolytic processing” value was “abolishes”.

B5: ADAM metallopeptidase domain 10 (ADAM10): N278Q (protein)
parent chain: MVLLRVLILLLSWAAGMGGQYGNPLNKYIRHYEGLSYNVDSLHQKHQRAKRAVSHEDQFLRLDFHAHGRHFNLRMKRDTSLFSDEFKVETSNKVLDYDTSHIYTGHIYGEEGSFSHGSVIDGRFEGFIQTRGGTFYVEPAERYIKDRTLPFHSVIYHEDDINYPHKYGPQGGCADHSVFERMRKYQMTGVEEVTQIPQEEHAANGPELLRKKRTTSAEKNTCQLYIQTDHLFFKYYGTREAVIAQISSHVKAIDTIYQTTDFSGIRNISFMVKRIRINTTADEKDPTNPFRFPNIGVEKFLELNSEQNHDDYCLAYVFTDRDFDDGVLGLAWVGAPSGSSGGICEKSKLYSDGKKKSLNTGIITVQNYGSHVPPKVSHITFAHEVGHNFGSPHDSGTECTPGESKNLGQKENGNYIMYARATSGDKLNNNKFSLCSIRNISQVLEKKRNNCFVESGQPICGNGMVEQGEECDCGYSDQCKDECCFDANQPEGRKCKLKPGKQCSPSQGPCCTAQCAFKSKSEKCRDDSDCAREGICNGFTALCPASDPKPNFTDCNRHTQVCINGQCAGSICEKYGLEECTCASSDGKDDKELCHVCCMKKMDPSTCASTGSVQWSRHFSGRTITLQPGSPCNDFRGYCDVFMRCRLVDADGPLARLKKAIFSPELYENIAEWIVAHWWAVLLMGIALIMLMAGFIKICSVHTPSSNPKLPPPKPLPGTLKRRRPPQPIQQPQRQRPRESYQMGHMRR
In the case of B5, the localisation_or_trafficking entry in series [5] is recorded as “changes”.
